Consider 1 protein from publication PMC5015425, “Structural insights into Parkin substrate lysine targeting from minimal Miro substrates” (Scientific Reports, 2016).

The series deals with the molecule itself. As to the kind of experiment: SEC-MALS; S200 10/300 GL column, 25 mM HEPES pH 7.4, 200 mM NaCl, 0.5 mM TCEP, 1 mM MgCl2, 0.5 mL/min, 10 °C; injected: hMiro1-C 16 mg/mL, hMiro2-C 7 mg/mL, hMiro1-CM 18 mg/mL.

B1: human Miro1 cGTPase domain, aa 411-592 (hMiro1-C) (domain or fragment, UniProt Q8IXI2 411-592, looked up)
chain: KKQTQRNVFRCNVIGVKNCGKSGVLQALLGRNLMRQKKIREDHKSYYAINTVYVYGQEKYLLLHDISESEFLTEAEIICDVVCLVYDVSNPKSFEYCARIFKQHFMDSRIPCLIVAAKSDLHEVKQEYSISPTDFCRKHKMPPPQAFTCNTADAPSKDIFVKLTTMAMYPHVTQADLKSSTF
notes: human Miro1 (RhoT1), C-terminal GTPase (cGTPase) domain, residues 411-592; Dimer in the crystal and in solution; Details of expression are in the Supplementary Methods; also called hMiro1-CD; hMiro1 cGTPase; source: bacteria, purified (TALON beads, HiTrap S cation exchange, Superdex 200 when necessary)
Consider B1, for which the “stoichiometry N” value came to 2.
